Tests used:
Assay type in all cases: biochemical
α-Chymotrypsin (bovine) = target: T1, α-Chymotrypsin (bovine) (Bos taurus, UniProt P00766); assay: Enzyme inhibition assay, α-chymotrypsin, release of p-nitroaniline from Suc-Ala-Ala-Pro-Phe-pNA; conditions: 50 ng enzyme/assay
T1 construct: purchased E. Merck, Darmstadt
Protocol: Bovine α-chymotrypsin (CHT) was obtained from E. Merck, Darmstadt.
(§1) The substrates: MeOSuc-Ala-Ala-Pro-Val-pNA (HLE), Ac-Ala-Ala-Pro-Ala-pNA and Suc-Ala-Ala-Ala-pNA (PPE and Suc-Ala-Ala-Pro-Phe-pNA (CHT) were obtained from Bachem, Bubendorf/Switzerland.
(§2) Culture filtrates were treated as follows: 10 μl TWEEN 80 solution (0.5%) and 50 μl perchloric acid (70%) were added to 1 ml of culture filtrate. After 20 min, these samples were centrifuged, and the clear supernatants were neutralized by the addition of 225 μl saturated solution of tris base. Aliquots of these solutions were taken to determine inhibitory activities.
(§3) Generally, the samples were diluted with the appropriate buffer volume, and the enzyme was added. After the preincubation time, substrate was added (substrates are dissolved in DMSO in a concentration of 0.1M and diluted with buffer to give the concentration of the stock solution). The release of p-nitroaniline from the substrates was measured at 405 nm either continuously or after quenching the reaction by adding acetic acid. 100%- values were determined by running samples where inhibitors were omitted. Percentage inhibition was calculated using the formula: [formula] […]

[1] = target: T2, Granulocytic Elastase (human) (Homo sapiens, UniProt P08246); assay: Enzyme inhibition assay, leukocyte (granulocytic) elastase, release of p-nitroaniline from MeOSuc-Ala-Ala-Pro-Val-pNA; conditions: 120 ng enzyme/assay
T2 construct: purchased Elastin Products Company, Inc
T2 sequence (P08246 30-267): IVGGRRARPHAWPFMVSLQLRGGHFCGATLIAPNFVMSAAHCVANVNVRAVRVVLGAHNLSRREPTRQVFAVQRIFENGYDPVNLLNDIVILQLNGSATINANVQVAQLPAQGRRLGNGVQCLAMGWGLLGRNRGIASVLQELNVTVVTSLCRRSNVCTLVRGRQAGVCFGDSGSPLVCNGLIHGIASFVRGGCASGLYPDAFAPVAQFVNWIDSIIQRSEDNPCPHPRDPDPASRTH
Protocol: (§4) Human leukocyte elastase (HLE) and porcine pancreas elastase (PPE) were obtained from Elastin Products Company, Inc. P.O. Box 147, Pacific, Miss. 63069/USA.
as §1, §2, §3

[2] = target: T3, Pancreatic Elastase (porcine) (Sus scrofa, UniProt P00772); assay: Enzyme inhibition assay, pancreatic elastase, release of p-nitroaniline from Ac-Ala-Ala-Pro-Ala-pNA; conditions: 500 ng enzyme/assay
T3 construct: purchased Elastin Products Company, Inc
T3 sequence (P00772 27-266): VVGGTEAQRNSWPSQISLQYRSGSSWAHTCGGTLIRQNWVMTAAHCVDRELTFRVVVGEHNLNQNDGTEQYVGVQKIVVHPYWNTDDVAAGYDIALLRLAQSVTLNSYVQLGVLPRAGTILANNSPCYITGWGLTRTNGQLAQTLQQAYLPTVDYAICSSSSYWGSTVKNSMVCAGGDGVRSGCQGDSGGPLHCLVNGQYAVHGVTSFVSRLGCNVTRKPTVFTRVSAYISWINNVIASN
Protocol: as §4, §1, §2, §3

Substance | amount of inhibitor giving 50% inhibition, α-Chymotrypsin (bovine) (α-Chymotrypsin (bovine)) [ng] | amount of inhibitor giving 50% inhibition, Granulocytic Elastase (human) [1] [ng] | amount of inhibitor giving 50% inhibition, Pancreatic Elastase (porcine) [2] [ng]
Leu^18 -Ala^32 -PSTI (DSLGREAKCYNELNGCTLIYDPVCGTDGNTYANECVLCFENRKRQTSILIQKSGPC; UniProt P00995 24-79, looked up, variant K18L P32A) [PSTI-1A, PSTI variant from cyanogen bromide cleavage of the PSTI-1A minifusion protein] | 100 | 18 | 1200
Met^-1 -Leu^18 -Glu^19 -Arg^21 -Ala^32 -PSTI (DSLGREAKCYNELNGCTLEYRPVCGTDGNTYANECVLCFENRKRQTSILIQKSGPC; N-terminal Met; UniProt P00995 24-79, looked up, variant K18L I19E D21R P32A) [Met-PSTI-4A] | 8 | 16 | 73
Tyr^18 -Glu^19 -Arg^21 -PSTI (DSLGREAKCYNELNGCTYEYRPVCGTDGNTYPNECVLCFENRKRQTSILIQKSGPC; UniProt P00995 24-79, looked up, variant K18Y I19E D21R) [PSTI-3P] | 7 | > 5000 | –

Continued, values first:

amount of inhibitor giving 50% inhibition, α-Chymotrypsin (bovine) (α-Chymotrypsin (bovine)) [ng] | amount of inhibitor giving 50% inhibition, Granulocytic Elastase (human) [1] [ng] | amount of inhibitor giving 50% inhibition, Pancreatic Elastase (porcine) [2] [ng] | Substance
6 | 15 | 68 | Asn^-13 -Ala^-12 -Glu^-11 -Thr^-10 -Ala^-9 -His^-8 -Lys^-7 -Ser^-6 -Asn^-5 -Glu^-4 -Val^-3 -Thr^-2 -Met^-1 -Leu^18 -Glu^19 -Arg^21 -Ala^32 -PSTI ({Asn-Ala-Glu-Thr-Ala-H2N}-KSNEVTMDSLGREAKCYNELNGCTLEYRPVCGTDGNTYANECVLCFENRKRQTSILIQKSGPC; ends and bridges not checked; UniProt P00995 24-79, looked up, variant K18L I19E D21R P32A) [PSTI-4A [Minifusion]]
7 | 17 | 75 | Leu^18 -Glu^19 -Arg^21 -Ala^32 -PSTI (DSLGREAKCYNELNGCTLEYRPVCGTDGNTYANECVLCFENRKRQTSILIQKSGPC; UniProt P00995 24-79, looked up, variant K18L I19E D21R P32A) [PSTI-4A, PSTI variant obtained from the minifusion protein by BrCN-cleavage]
100 | 15 | 70 | Val^18 -Glu^19 -Arg^21 -PSTI (DSLGREAKCYNELNGCTVEYRPVCGTDGNTYPNECVLCFENRKRQTSILIQKSGPC; UniProt P00995 24-79, looked up, variant K18V I19E D21R) [PSTI-5P]

Source: patent publication US5126322A, “Pancreatic secretory tryspin inhibitor and variants thereof produced by a recombinant host therefore and pharmaceutical use thereof” (Bayer Aktiengesellschaft, priority 1987, dated 1992)
